Source: article doi:10.1101/2022.11.10.516034 (bioRxiv, 2022)
Like-named read-outs stand apart in the source and are kept apart here.

Assays:
SEC [1] = target: the molecule itself; assay: SEC
SEC [2] = target: the molecule itself; assay: SEC; remark: listed apart in the source

Protein	stoichiometry N (SEC [1])	stoichiometry N (SEC [2])
Twinkle C-terminal domain with linker (CTD, amino acids 360-684) (domain or fragment, human, UniProt Q96RR1 360-684, looked up) LPAWHKSIVSFRQLREEVLGELSNVEQAAGLRWSRFPDLNRILKGHRKGELTVFTGPTGSGKTTFISEYALDLCSQGVNTLWGSFEISNVRLARVMLTQFAEGRLEDQLDKYDHWADRFEDLPLYFMTFHGQQSIRTVIDTMQHAVYVYDICHVIIDNLQFMMGHEQLSTDRIAAQDYIIGVFRKFATDNNCHVTLVIHPRKEDDDKELQTASIFGSAKASQEADNVLILQDRKLVTGPGKRYLQVSKNRFDGDVGVFPLEFNKNSLTFSIPPKNKARLKKIKDDTGPVAKKPSSGKKGATTQNSEICSGQAPTPDQPDTSKRSK	~12 subunit	–
full-length (FL) human Twinkle (aa 43-684) (enzyme, UniProt Q96RR1 43-684, looked up) ETLQALDMPVLPVTATEIRQYLRGHGIPFQDGHSCLRALSPFAESSQLKGQTGVTTSFSLFIDKTTGHFLCMTSLAEGSWEDFQASVEGRGDGAREGFLLSKAPEFEDSEEVRRIWNRAIPLWELPDQEEVQLADTMFGLTKVTDDTLKRFSVRYLRPARSLVFPWFSPGGSGLRGLKLLEAKCQGDGVSYEETTIPRPSAYHNLFGLPLISRRDAEVVLTSRELDSLALNQSTGLPTLTLPRGTTCLPPALLPYLEQFRRIVFWLGDDLRSWEAAKLFARKLNPKRCFLVRPGDQQPRPLEALNGGFNLSRILRTALPAWHKSIVSFRQLREEVLGELSNVEQAAGLRWSRFPDLNRILKGHRKGELTVFTGPTGSGKTTFISEYALDLCSQGVNTLWGSFEISNVRLARVMLTQFAEGRLEDQLDKYDHWADRFEDLPLYFMTFHGQQSIRTVIDTMQHAVYVYDICHVIIDNLQFMMGHEQLSTDRIAAQDYIIGVFRKFATDNNCHVTLVIHPRKEDDDKELQTASIFGSAKASQEADNVLILQDRKLVTGPGKRYLQVSKNRFDGDVGVFPLEFNKNSLTFSIPPKNKARLKKIKDDTGPVAKKPSSGKKGATTQNSEICSGQAPTPDQPDTSKRSK	–	~7
